{"source": "paper PMC9901739", "biological_target": "acetylesterase LgEstI from Lactococcus garvieae (Lactococcus garvieae)", "assay": "SEC; Superdex 200 10/300 GL; 20 mM Tris-HCl pH 8.0, 200 mM NaCl, 1 mM TCEP, 5% glycerol; standard curve from a protein standard mix of 15-600 kDa", "data": [{"substance": "acetylesterase LgEstI from Lactococcus garvieae (enzyme)", "values": [{"measurement": "stoichiometry N", "value": 2}]}]}
